# Results reported in paper PMC11543891, “Expression, purification, and characterization of diacylated Lipo-YcjN from Escherichia coli” (The Journal of Biological Chemistry, 2024).
# Biological target: the molecule itself
# Assay: SEC; Hiload 16/600 Superdex 200 pg, 25 mM Tris-HCl pH 7.5, 100 mM NaCl, run without LMNG and with 0.01% LMNG; elution volumes compared with gel filtration standards
protein,measurement,value
"Lipo-YcjN (diacylated lipoprotein form of E. coli YcjN, from the construct SP-YcjN-10H) (natural protein, E. coli K-12, UniProt P76042 21-430, looked up, diacylated at cysteine 21 (S-diacylglyceryl-cysteine, the new N terminus), acyl chain compositions [16:0, 16:0] and [16:0, 18:1], YcjN, E. coli K-12, expressed with its native N-terminal signal peptide; by intact mass the purified protein is the processed lipoprotein that begins at the diacylated cysteine 21; Expressed as the full-length precursor (SP-YcjN-10H); LC-MS masses of 46,699 and 46,726 Da fit the protein cut before C21 and diacylated; No tag removal is described; also called lipidated YcjN) CKEENKTNVSIEFMHSSVEQERQAVISKLIARFEKENPGITVKQVPVEEDAYNTKVITLSRSGSLPEVIETSHDYAKVMDKEQLIDRKAVATVISNVGEGAFYDGVLRIVRTEDGSAWTGVPVSAWIGGIWYRKDVLAKAGLEEPKNWQQLLDVAQKLNDPANKKYGIALPTAESVLTEQSFSQFALSNQANVFNAEGKITLDTPEMMQALTYYRDLTANTMPGSNDIMEVKDAFMNGTAPMAIYSTYILPAVIKEGDPKNVGFVVPTEKNSAVYGMLTSLTITAGQKTEETEAAEKFVTFMEQADNIADWVMMSPGAALPVNKAVVTTATWKDNDVIKALGELPNQLIGELPNIQVFGAVGDKNFTRMGDVTGSGVVSSMVHNVTVGKADLSTTLQASQKKLDELIEQH",binding result,binds
